# Columns and labels:
# [1] = frontal affinity chromatography (FAC), association constant to PA sugar chains having α1→6 L-fucose; assay type: binding; settings: 25 degrees C.
# Procedure: The following section will describe a method of calculating an association constant by frontal affinity chromatography (FAC). This method is based on the following principle. […] Then, the elution front end (front) is observed immediately. When there is an affinity with lectin, the elution of the sugar chain is delayed.
# The preparation of a lectin column used in the apparatus is performed in the method as described below. 1. Purified lectin is dissolved in 0.1 to 0.2M of NaHCO3 buffer solution (pH 8.3 to 8.5). 2. The lectin is immobilized, via a lectin primary amino group, a carrier such as NHS activated sepharose. 3. Then, the lectin is blocked by Tris buffer solution including primary amine or ethanolamine for example. 4. Lectin-sepharose is suspended in 10 mM Tris buffer, including 0.8% of NaCl (pH 7.4, TBS). Then, lectin immobilized resin is filled in a miniature column (φ2 mm×10 mm, 31.4 μl). 5. The miniature column in which the lectin immobilized resin is filled is protected by a holder and the lectin column is connected to an FAC automatic analysis apparatus (FAC-1, SHIMADZU CORPORATION).
# Then, the elution of the PA sugar chain from the column is detected by a fluorescence detector (excitation wavelength/fluorescence wavelength: 310 nm/380 nm).
# Based on the detection data, by using the elution front end (Vo) of the sugar chain (PA rhamnose) not interacting with lectin as a reference, the delay (V−Vo) of the elution front end (V) of a sugar chain interacting with lectin is calculated as an interaction strength. Then, based on the following FAC criteria expressions, the association constant (Ka) between the sugar chain and lectin is calculated based on V−Vo and Bt. If the interaction strength (V−Vo value) and the association constant are higher, a higher affinity is caused between lectin and an L-fucose α1→6 sugar chain.
# [In the formula, A means substance used for the elution, Ao means the initial concentration of the substance A, B means a immobilized ligand, V means the elution volume, Vo means the elution front end volume of the substance not interacting with the immobilized ligand B at all, Bt means an effective ligand amount, Kd means a dissociation constant (an inverse of the association constant)].
# Pyridylaminated (PA) sugar chains shown in FIG. 1 and FIG. 2 were used to frontal affinity chromatography (FAC) analysis. PA sugars were purchased from TAKARA BIO INC., SEIKAGAKU BIOBUSINESS CORPORATION, and Masuda Chemical Industries co., LTD. PA sugar were also obtained by pyridylaminating, by GlycoTAG®(TAKARA BIO INC.), an unlabeled sugar chain or a sugar chain obtained by subjecting a sugar chain to enzyme digestion for example.
# Lectin was dissolved in 0.2 M NaHCO3 buffer solution (pH 8.3) including 0.5 M NaCl and coupled to the NHS-activated sepharose (GE Healthcare Bioscience) by following the manufacturer's instructions. Then, lectin immobilized sepharose was suspended in 10 mM Tris buffer (pH 7.4, TBS) including […] and the resultant matter was filled in a miniature column (φ2 mm×10 mm, 31.4 μl).
# Frontal affinity chromatography was performed using FAC automatic analysis apparatus (FAC-1, SHIMADZU CORPORATION). In particular, the above-prepared lectin column was inserted to a stainless steel holder and the holder was connected to FAC-1 apparatus. The flow rate and the column temperature were maintained at 0.125 ml/min and 25 degrees C., respectively. After the miniature column was equilibrated by the TBS, an excessive volume (0.5 ml to 4 ml) of a PA sugar chain (3.75 nM or 7.5 nM) was continuously inputted to the column using an automatic sampling apparatus.
# The fluorescent strength of the eluate of the PA sugar (excitation wavelength of 310 nm and fluorescence wavelength of 380 nm) was monitored to measure the interaction strength [a difference of the front end eluate to the standard oligosaccharide (PA rhamnose): V−V0]. […]
# [2] = test system: glycoproteins; assay: hemagglutinating inhibition test with glycoproteins (sugar binding specificity); assay type: cell-based
# Excerpt: The sugar binding specificity of lectin also can be confirmed by using erythrocytes that can be specifically agglutinated by the lectin to investigate the sugar type that may inhibit the agglutination of the erythrocytes and the concentration thereof.
# Various monosaccharides, oligosaccharides, and polysaccharides shown in Table 2 and glycoproteins shown in Table 3 were subjected to hemagglutinating inhibition test to evaluate PTL of Example 1 and the SRL of Example 2 with regard to the sugar binding specificity.
# On a 96 well U-bottom microtiter plate, double dilution series of 10 μl of monosaccharide, oligosaccharide, polysaccharide, and glycoprotein solutions were prepared. Then, lectin solution adjusted in advance to have titer 4 was added in an amount of 10 μl to the respective wells. Then, the plate was subjected to a still-standing at a room temperature for one hour for sensitization. Then, 10 μl of 4%-red blood cell suspension was added to the respective wells and the plate was further subjected to a still-standing at a room temperature for one hour. […] The lowest concentration showing the inhibition was assumed as the minimum inhibition concentration. The lower the minimum inhibition concentration is, the higher the specificity to lectin is.
# For comparison, the sugar binding specificity was evaluated using the following commercially-available lectins: Comparison Example 1: AAL (SEIKAGAKU BIOBUSINESS CORPORATION—J-OIL MILLS, Inc.), Comparison Example 2: AOL (TOKYO CHEMICAL INDUSTRY CO., LTD.—Gekkeikan Sake Company, Ltd.), Comparison Example 3: LCA (SEIKAGAKU BIOBUSINESS CORPORATION—J-OIL MILLS, Inc.), and Comparison Example 4: PSA (SEIKAGAKU BIOBUSINESS CORPORATION—J-OIL MILLS, Inc.).
# [3] = inhibitor: Bovine blood serum albumin
# [4] = inhibitor: Human immune globulin A
# [5] = inhibitor: Human immune globulin G
# [6] = inhibitor: α1-acidic glycoprotein
Molecule,association constant Ka ([1]; Sugar chain No. 015) [M⁻¹],association constant Ka ([1]; Sugar chain No. 201) [M⁻¹],association constant Ka ([1]; Sugar chain No. 202) [M⁻¹],association constant Ka ([1]; Sugar chain No. 203) [M⁻¹],association constant Ka ([1]; Sugar chain No. 401) [M⁻¹],association constant Ka ([1]; Sugar chain No. 402) [M⁻¹],association constant Ka ([1]; Sugar chain No. 403) [M⁻¹],association constant Ka ([1]; Sugar chain No. 404) [M⁻¹],association constant Ka ([1]; Sugar chain No. 405) [M⁻¹],association constant Ka ([1]; Sugar chain No. 406) [M⁻¹],association constant Ka ([1]; Sugar chain No. 407) [M⁻¹],association constant Ka ([1]; Sugar chain No. 410) [M⁻¹],association constant Ka ([1]; Sugar chain No. 413) [M⁻¹],association constant Ka ([1]; Sugar chain No. 418) [M⁻¹],association constant Ka ([1]; Sugar chain No. 601) [M⁻¹],association constant Ka ([1]; Sugar chain No. 602) [M⁻¹],minimum inhibition concentration of hemagglutination ([2]; inhibitor: Asialofetuin) [μl/ml],minimum inhibition concentration of hemagglutination ([2]; inhibitor: Asialomucin (pig)) [μl/ml],"minimum inhibition concentration of hemagglutination [2, 3] [μl/ml]",minimum inhibition concentration of hemagglutination ([2]; inhibitor: Casein) [μl/ml],further results
Lens culinaris agglutinin (protein) chain 1: TETTSFSITKFSPDQKNLIFQGDGYTTKGKLTLTKAVKSTVGRALYSTPIHIWDRDTGNVANFVTSFTFVIDAPSSYNVADEFTFFIAPVDTKPQTGGGYLGVFNSKEYDKTSQTVAVEFDTFYNAAWDPSNKERHIGIDVNSIKSVNTKSWNLQNGERANVVIAFNAATNVLTVTLTYP chain 2: VTSYTLNEVVPLKDVVPEWVRIGFSATTGAEFAAHEVHSWSFHSELGGTSSS,56000,500000,110000,73000,42000,59000,99000,58000,47000,18000,1000,<1000,<1000,<1000,30000,24000,250,>250,>250,>250,"minimum inhibition concentration of hemagglutination ([2]; inhibitor: Fetuin): >250 μl/ml; minimum inhibition concentration of hemagglutination [2, 4]: >250 μl/ml; minimum inhibition concentration of hemagglutination [2, 5]: >250 μl/ml; minimum inhibition concentration of hemagglutination ([2]; inhibitor: Lactoferrin): >250 μl/ml; minimum inhibition concentration of hemagglutination ([2]; inhibitor: Mucin (bovine)): >250 μl/ml; minimum inhibition concentration of hemagglutination ([2]; inhibitor: Mucin (pig)): >250 μl/ml; minimum inhibition concentration of hemagglutination ([2]; inhibitor: Ribonuclease): >250 μl/ml; minimum inhibition concentration of hemagglutination ([2]; inhibitor: Thyroglobulin): 62.5 μl/ml; minimum inhibition concentration of hemagglutination ([2]; inhibitor: Transferrin): >250 μl/ml; minimum inhibition concentration of hemagglutination [2, 6]: >250 μl/ml"
Aleuria aurantia lectin (protein) PTEFLYTSKIAAISWAATGGRQQRVYFQDLNGKIREAQRGGDNPWTGGSSQNVIGEAKLFSPLAAVTWKSAQGIQIRVYCVNKDNILSEFVYDGSKWITGQLGSVGVKVGSNSKLAALQWGGSESAPPNIRVYYQKSNGSGSSIHEYVWSGKWTAGASFGSTVPGTGIGATAIGPGRLRIYYQATDNKIREHCWDSNSWYVGGFSASASAGVSIAAISWGSTPNIRVYWQKGREELYEAAYGGSWNTPGQIKDASRPTPSLPDTFIAANSSGNIDISVFFQASGVSLQQWQWISGKGWSIGAVVPTGTPAGW,91000,51000,54000,66000,55000,11000,52000,65000,56000,47000,45000,38000,32000,<1000,61000,52000,>250,31.3,>250,>250,"minimum inhibition concentration of hemagglutination ([2]; inhibitor: Fetuin): >250 μl/ml; minimum inhibition concentration of hemagglutination [2, 4]: >250 μl/ml; minimum inhibition concentration of hemagglutination [2, 5]: >250 μl/ml; minimum inhibition concentration of hemagglutination ([2]; inhibitor: Lactoferrin): >250 μl/ml; minimum inhibition concentration of hemagglutination ([2]; inhibitor: Mucin (bovine)): >250 μl/ml; minimum inhibition concentration of hemagglutination ([2]; inhibitor: Mucin (pig)): 15.6 μl/ml; minimum inhibition concentration of hemagglutination ([2]; inhibitor: Ribonuclease): >250 μl/ml; minimum inhibition concentration of hemagglutination ([2]; inhibitor: Thyroglobulin): 125 μl/ml; minimum inhibition concentration of hemagglutination ([2]; inhibitor: Transferrin): >250 μl/ml; minimum inhibition concentration of hemagglutination [2, 6]: >250 μl/ml"
